Columns and labels:
[1] = target: Human LIF-R encoded by cDNA clone 65 (pHLIFR-65), expressed on transfected COS-7 cells (human); assay: 125I-LIF binding to COS cells transfected with LIF-R cDNA clone 65, Scatchard analysis
[2] = target: LIF receptors on the surface of DA-1 cells; assay: 125I-LIF binding to intact DA-1 cells, phthalate oil separation
[3] = target: Recombinant human leukemia inhibitory factor (LIF) (human) (UniProt P15018); assay: Scatchard analysis, LIF-R/Fc on Protein G Sepharose beads with serial dilutions of 125I-LIF

| Ka [1] [M⁻¹] | Ka [2] [M⁻¹] | Ka [3] [M⁻¹] | Substance |
| --- | --- | --- | --- |
| > 1e+09 | 7.4e+08 |  | Recombinant human leukemia inhibitory factor (LIF) (from UniProt P15018) (ligand) |
|  |  | 9e+08 | Soluble human LIF-R/Fc homodimer (Fc fusion) |
